Test results as given in the Human Domainome abundance scans (Beltran et al. 2025).
± gives the uncertainty stated by the source.

B1: Chromodomain-helicase-DNA-binding protein 5, residues 338 to 390; numbered along this chain, Q8TDI0 (parent)
chain: YETDHQDYCEVCQQGGEIILCDTCPRAYHLVCLDPELEKAPEGKWSCPHCEKE
B2: Membrane-associated guanylate kinase, WW and PDZ domain-containing protein 1, residues 352 to 401; numbered along this chain, Q96QZ7 (parent)
chain: TEELDSELELPAGWEKIEDPVYGIYYVDHINRKTQYENPVLEAKRKKQLE

Variants of: B1
Experiment: abundance fitness (aPCA) (normalised: wild type 0, dead -1); higher = more abundant; growth selection in yeast, the domain comes from the species named
Conditions: Homo sapiens

Variant | abundance fitness
E53V | -0.29 ± 0.18
E53L | 0.022 ± 0.29
E53R | -0.341 ± 0.16
E53Y | -0.219 ± 0.43
E53S | -0.548 ± 0.25
E53W | -0.526 ± 0.23

Variants of: B2
Experiment: as above
Conditions: Homo sapiens

Variant | abundance fitness
L49N | -0.222 ± 0.24
L49F | -0.328 ± 0.12
K44E | 0.019 ± 0.043
K44W | -0.237 ± 0.046
K44H | -0.196 ± 0.15
K44C | -0.03 ± 0.078
L4Q | -0.067 ± 0.081
L4H | 0.202 ± 0.095
K46H | 0.173 ± 0.1
K46T | -0.333 ± 0.11
K46S | -0.093 ± 0.041
K46Y | -0.169 ± 0.094
E15Q | -0.229 ± 0.086
E15H | -0.393 ± 0.23
E15A | -0.341 ± 0.057
D19K | -0.579 ± 0.2
D19M | -0.845 ± 0.068
D19L | -0.985 ± 0.11
T34F | -0.387 ± 0.079
T34Q | -0.182 ± 0.072
T34Y | -0.324 ± 0.089
T34E | -0.316 ± 0.083
Q48I | 0.188 ± 0.092
Q48V | -0.115 ± 0.048
Q48T | -0.17 ± 0.051
V27M | 0.038 ± 0.068

Variant | abundance fitness
V27W | -0.242 ± 0.053
V27H | -0.307 ± 0.061
V27Q | -0.227 ± 0.087
V27P | -0.394 ± 0.055
K16W | -0.802 ± 0.081
N38Q | -0.387 ± 0.1
N38C | -0.747 ± 0.051
N38Y | -0.365 ± 0.097
N38F | -0.058 ± 0.062
N38E | -0.254 ± 0.084
N38P | -0.481 ± 0.1
E9A | 0.105 ± 0.044
K47M | -0.102 ± 0.049
K47A | -0.075 ± 0.076
L41C | -0.116 ± 0.075
L41P | -0.128 ± 0.07
Y36S | -0.086 ± 0.059
Y36M | 0.096 ± 0.083
Y36H | -0.093 ± 0.043
D5F | -0.006 ± 0.17
D5K | 0.086 ± 0.088
D5Q | -0.128 ± 0.05
D5V | 0.001 ± 0.044
D5M | -0.421 ± 0.11
G23K | -0.762 ± 0.079
Q35W | -0.48 ± 0.055

Variant | abundance fitness
Q35D | -0.597 ± 0.11
Q35V | -0.188 ± 0.056
Q35Y | -0.15 ± 0.15
Q35M | -0.18 ± 0.078
V21E | 0.063 ± 0.081
V21Q | -0.008 ± 0.099
S6K | -0.148 ± 0.1
W14S | -0.46 ± 0.078
W14I | 0.071 ± 0.13
W14H | -0.592 ± 0.079
W14L | -0.897 ± 0.08
R32E | 0.002 ± 0.055
P39S | -0.597 ± 0.069
P39D | -0.314 ± 0.098
P39K | -0.857 ± 0.15
E42H | -0.599 ± 0.17
E42T | -0.086 ± 0.042
E42D | -0.192 ± 0.062
E42V | -0.149 ± 0.043
K33C | -0.074 ± 0.074
K33F | -0.52 ± 0.15
K33Q | -0.034 ± 0.046
K33G | -0.414 ± 0.054
K33A | -0.057 ± 0.048
K33W | -0.347 ± 0.051
